The values that follow are results of earlier work, collected in paper PMC4434180.

For the data set, the target named is PriL (p58) NTD (Homo sapiens) (UniProt P49643).
Sequence of UniProt P49643 (P49643 1-253): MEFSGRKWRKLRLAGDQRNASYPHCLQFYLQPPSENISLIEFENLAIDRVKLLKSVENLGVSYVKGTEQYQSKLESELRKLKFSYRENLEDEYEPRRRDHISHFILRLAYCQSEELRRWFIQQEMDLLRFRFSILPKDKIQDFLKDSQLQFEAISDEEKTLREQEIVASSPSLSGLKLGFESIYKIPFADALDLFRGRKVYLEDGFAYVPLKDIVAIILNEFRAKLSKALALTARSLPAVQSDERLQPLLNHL

The Kd is a measure of binding affinity in units of concentration. As to PriS (p49) (from UniProt P49642), the Kd was 0.46 nM.
